Positions count from the first letter of the chain named.
T1: monomeric human TIGIT (Sino Biological 10917-H08H) (human, UniProt Q495A1 22-138, biotinylated in the MSD-SET assay)
T1 construct: Bought protein; also called Human TIGIT monomer; Human TIGIT-His; not shown: His tag
T1 sequence: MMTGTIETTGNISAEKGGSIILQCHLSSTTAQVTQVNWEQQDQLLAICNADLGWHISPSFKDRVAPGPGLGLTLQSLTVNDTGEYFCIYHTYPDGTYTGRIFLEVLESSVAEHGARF

T2: recombinant dimeric human TIGIT-Fc (Acro Biosystems TIT-H5254) (human, UniProt Q495A1 22-141)
T2 construct: Bought protein; also called hTIGIT-Fc; not shown: Fc part of the bought fusion protein
T2 sequence: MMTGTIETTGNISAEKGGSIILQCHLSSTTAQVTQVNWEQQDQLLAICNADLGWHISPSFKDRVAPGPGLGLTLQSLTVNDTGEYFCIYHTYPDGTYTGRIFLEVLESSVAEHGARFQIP

T3: human TIGIT expressed on cells (human, UniProt Q495A1 22-244)
T3 construct: HEK 293 cells stably expressing human TIGIT, primary human T cells or Jurkat effector cells; the cell is named under assay; also called Human TIGIT HEK
T3 sequence: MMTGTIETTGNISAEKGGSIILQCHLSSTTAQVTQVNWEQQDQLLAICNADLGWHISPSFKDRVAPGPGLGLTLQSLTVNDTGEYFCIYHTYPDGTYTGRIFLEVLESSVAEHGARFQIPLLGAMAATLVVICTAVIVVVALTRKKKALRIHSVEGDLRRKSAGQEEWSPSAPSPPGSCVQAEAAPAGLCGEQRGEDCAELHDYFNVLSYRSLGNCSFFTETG

B1: Clone 25A (antibody, V domains shown)
VH: QVQLVQSGAEVKKPGASVKVSCKASGYTFTSYAISWVRQAPGQGLEWMGWISAYNGNTKYAQKLQGRVTMTTDTSTSTAYMELRSLRSDDTAVYYCARDLSSFWSGDVLGAFDIWGQGTMVTVSS
VL: DIQMTQSPSSLSASVGDRVTITCRASQSISSYLNWYQQKPGKAPKLLIYAASSLQSGVPSRFSGSGSGTDFTLTISSLQPEDFATYYCQQSVPPRTFGGGTKVEIK
B2: Clone 25E (antibody, V domains shown)
VH: B1 VH with S35A, K59N, D99S, L100G
VL: B1 VL
B3: Clone 25D (antibody, V domains shown)
VH: B1 VH with A33P, S35G, A53S, K59N, S101K
VL: B1 VL
B4: Clone 25B (antibody, V domains shown)
VH: B1 VH with A33P, S35G, A53S, K59N
VL: B1 VL
B5: Clone 25C (antibody, V domains shown)
VH: B1 VH with A33P, S35G, A53S, K59N, D99G, L100A
VL: B1 VL
B6: Clone 2C (antibody, V domains shown)
VH: EVQLVESGGGLVQPGGSLRLSCAASGFTFTDYYMDWVRQAPGKGLEWVGRTRNKVNSYYTEYAASVKGRFTISRDDSKNSLYLQMNSLKTEDTAVYYCARGQYYYGSDRRGYYYMDVWGQGTTVTVSS
VL: EIVLTQSPGTLSLSPGERATLSCRASQSVSSSYLAWYQQKPGQAPRLLIYGASSRATGIPDRFSGSGSGTDFTLTISRLEPEDFAVYYCQQAVPSPLTFGGGTKVEIK
B7: Clone 16C (antibody, V domains shown)
VH: QVQLVQSGAEVKKPGSSVKVSCKASGGTFREYAISWVRQAPGQGLEWMGGIHPIFGTARYAQKFQGRVTITADESTSTAYMELSSLRSEDTAVYYCTRQSTWHKLYGTDVWGQGTTVTVSS
VL: DIQMTQSPSSVSASVGDRVTITCRASQGISSWLAWYQQKPGKAPKLLIYAASSLQSGVPSRFSGSGSGTDFTLTISSLQPEDFATYYCQQGDSLPPTFGGGTKVEIK
B8: Clone 16E (antibody, V domains shown)
VH: B7 VH with R30S, E31D, A33P, H52I, F55V, T57G, R59N, T97A, L105V
VL: B7 VL
B9: Clone 16D (antibody, V domains shown)
VH: B7 VH with R30S, E31D, A33P, H52I, F55V, T57G, R59N, Y106F
VL: B7 VL
B10: Clone 13D (antibody, V domains shown)
VH: QVQLVQSGAEVKKPGSSVKVSCKASGGTFLSSAISWVRQAPGQGLEWMGSIIPYFGKANYAQKFQGRVTITADESTSTAYMELSSLRSEDTAVYYCARGPSEVKGILGYVWFDPWGQGTLVTVSS
VL: not shown
B11: Clone 13A (antibody, V domains shown)
VH: B10 VH with I51L, K57T, K104G, G105A
VL: not shown
B12: Clone 13C (antibody, IgG1, V domains shown)
VH: B10 VH with Y54L
VL: not shown
B13: Clone 13B (antibody, V domains shown)
VH: B10 VH with L30S, S31A, S32W, K104S
VL: not shown
B14: Clone 21 (antibody, V domains shown)
VH: QLQLQESGPGLVKPSETLSLTCTVSGGSISSSSYYWGWIRQPPGKGLEWIGSIYYSGSTYYNPSLKSRVTISVDTSKNQFSLKLSSVTAADTAVYYCARDPLYQDAPFDYWGQGTLVTVSS
VL: EIVLTQSPATLSLSPGERATLSCRASQSVSSYLAWYQQKPGQAPRLLIYDASNRATGIPARFSGSGSGTDFTLTISSLEPEDFAVYYCQQRANFPTFGGGTKVEIK
notes: Fully human IgG produced in yeast
B15: Clone 27 (antibody, V domains shown)
VH: B1 VH with K59N
VL: EIVMTQSPATLSVSPGERATLSCRASQSVSSNLAWYQQKPGQAPRLLIYGASTRATGIPARFSGSGSGTEFTLTISSLQSEDFAVYYCQQHANHITFGGGTKVEIK
notes: as for B14
B16: Clone 22 (antibody, V domains shown)
VH: QVQLQESGPGLVKPSETLSLTCAVSGYSISSGYYWAWIRQPPGKGLEWIGSIYHSGSTYYNPSLKSRVTISVDTSKNQFSLKLSSVTAADTAVYYCARQGYYYGSSGSVDFDLWGRGTLVTVSS
VL: DIQMTQSPSSVSASVGDRVTITCRASQGISSWLAWYQQKPGKAPKLLIYAASNLQSGVPSRFSGSGSGTDFTLTISSLQPEDFATYYCQQANSLPPWTFGGGTKVEIK
notes: as for B14
B17: Clone 3 (antibody, V domains shown)
VH: B6 VH with T30S, Y32H, V55A, Y59T, D108S, R109S
VL: EIVLTQSPGTLSLSPGERATLSCRASQSVRSSYLAWYQQKPGQAPRLLIYGASSRATGIPDRFSGSGSGTDFTLTISRLEPEDFAVYYCQQVGPPLTFGGGTKVEIK
notes: as for B14
B18: Clone 14 (antibody, V domains shown)
VH: B10 VH with L30S, S32Y, Y54I, K57T, K104G, G105A
VL: not shown
notes: as for B14
B19: Clone 18 (antibody, V domains shown)
VH: QVQLVQSGAEVKKPGASVKVSCKASGYTFTSYYMSWVRQAPGQGLEWMGIINPSGGSTSYAQKFQGRVTMTRDTSTSTVYMELSSLRSEDTAVYYCARVRYGYADGMDVWGQGTTVTVSS
VL: B7 VL with V11L, G28S, W32Y, A34N, A50G, G91V, D92Y, S93H, P96F
notes: as for B14

These binders were tested against T4, cyno TIGIT-Fc (cynomolgus monkey) (assay: BLI (ForteBio), IgG on sensor, avid).
T4 construct: not shown: Fc part
T4 sequence (chain, as listed by the source limits assumed): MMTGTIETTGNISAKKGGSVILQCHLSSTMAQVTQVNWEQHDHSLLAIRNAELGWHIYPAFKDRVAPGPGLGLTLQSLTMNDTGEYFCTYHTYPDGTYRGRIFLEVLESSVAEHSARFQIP

| Kd | Binder |
| --- | --- |
| 1640 pM | B1 |
| 1180 pM | B2 |
| 1180 pM | B3 |
| 1400 pM | B4 |
| 1240 pM | B5 |
| 984 pM | B6 |
| 4250 pM | B7 |
| 1360 pM | B8 |
| 1150 pM | B9 |

Each binder was assayed against T1, monomeric human TIGIT (Sino Biological …) (assay: BLI (ForteBio), IgG on sensor, monovalent).
Procedure: (§1) Briefly, ForteBio affinity measurements were performed by loading IgGs on-line onto AHQ sensors. Sensors were equilibrated off-line in assay buffer for 30 minutes and then monitored on-line for 60 seconds for baseline establishment. Sensors with loaded IgGs were exposed to 100 nM antigen (dimeric Fc-fusion antigen or monomeric antigen) for 3 minutes, and afterwards were transferred to assay buffer for 3 minutes for off-rate measurement. All binding and dissociation kinetics were analyzed using the 1:1 binding model.
The optimized antibodies were also tested for ligand blocking in a CD155 ligand competition assay, and for binding to human TIGIT HEK, cyno TIGIT HEK, mouse TIGIT HEK, and parental HEK cell lines, as described above.

| Kd | Binder |
| --- | --- |
| 1100 pM | B1 |
| 851 pM | B2 |
| 846 pM | B3 |
| 1160 pM | B4 |
| 697 pM | B5 |
| 518 pM | B6 |
| 571 pM | B10 |
| 627 pM | B11 |
| 563 pM | B12 |
| 610 pM | B13 |
| 911 pM | B7 |
| 778 pM | B8 |
| 596 pM | B9 |

The binders below were run against T1, monomeric human TIGIT (Sino Biological …) (assay: MSD-SET solution equilibrium titration, biotinylated antigen at 50 pM).
Procedure: Antibodies (20 nM in PBS) were coated onto standard bind MSD-ECL plates overnight at 4° C. or at room temperature for 30 min. Plates were then blocked with 1% BSA for 30 min with shaking at 700 rpm, followed by three washes with wash buffer (PBSF+0.05% Tween 20). SET samples were applied and incubated on the plates for 150s with shaking at 700 rpm followed by one wash. Antigen captured on a plate was detected with 250 ng/ml sulfotag-labeled streptavidin in PBSF by incubation on the plate for 3 min. The plates were washed three times with wash buffer and then read on the MSD Sector Imager 2400 instrument using 1× Read Buffer T with surfactant. The percent free antigen was plotted as a function of titrated antibody in Prism and fit to a quadratic equation to extract the KD. To improve throughput, liquid handling robots were used throughout MSD-SET experiments, including SET sample preparation.

| Kd | Binder |
| --- | --- |
| 18 pM | B1 |
| 13 pM | B2 |
| 27 pM | B3 |
| 22 pM | B4 |
| 5.6 pM | B5 |
| 16 pM | B6 |
| 5 pM | B10 |
| 25 pM | B11 |
| 8.6 pM | B12 |
| 5.3 pM | B13 |
| 6.3 pM | B7 |
| 11 pM | B8 |
| 13 pM | B9 |

Each binder was assayed against T2, recombinant dimeric human TIGIT-Fc … (assay: BLI (ForteBio Octet RED384), IgG on AHQ sensor, 100 nM antigen, 1:1 model).
Procedure: as §1

| Kd | Binder |
| --- | --- |
| 585 pM | B14 |
| 558 pM | B15 |
| 790 pM | B16 |
| 2770 pM | B17 |
| 2010 pM | B18 |
| 2390 pM | B19 |

Each binder was assayed against T1, monomeric human TIGIT (Sino Biological …) in the same assay as above.
Procedure: as §1

| Kd | Binder |
| --- | --- |
| 2180 pM | B14 |
| 2320 pM | B15 |
| 13800 pM | B16 |
| 73600 pM | B17 |
| 58700 pM | B18 |
| 50800 pM | B19 |

Each binder was assayed against T3, human TIGIT expressed on cells (assay: flow cytometry on HEK 293 cells expressing the target, MFI over parental HEK 293;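 also: bound antibody detected with PE-labelled anti-human IgG, 15 min on ice. FOB equals median fluorescence on TIGIT-positive cells divided by that on target-negative cells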).
Procedure: (§2) HEK 293 cells were engineered to stably express high levels of human, mouse or cynomolgus monkey TIGIT by lentiviral transduction. […] Cells were then washed twice with wash buffer and incubated with anti-human IgG conjugated to PE for 15 minutes on ice. Cells were then washed twice with wash buffer and analyzed by flow cytometry on a FACS Canto II instrument (BD Biosciences). Fold over background (FOB) was calculated as the median fluorescence intensity (MFI) of the anti-TIGIT clone bound to target-positive cells divided by the MFI of the anti-TIGIT clone bound to target-negative cells.

| FOB (Fold Over Background) | Binder |
| --- | --- |
| 207 fold | B1 |
| 204 fold | B2 |
| 225 fold | B3 |
| 222 fold | B4 |
| 216 fold | B5 |
| 193 fold | B6 |
| 208 fold | B7 |
| 195 fold | B8 |
| 199 fold | B9 |

The binders below were run against T5, cynomolgus monkey TIGIT expressed on cells (cynomolgus monkey) in the same assay as above.
T5 construct: HEK 293 cells stably expressing cynomolgus monkey TIGIT or cynomolgus T cells; also called Cyno TIGIT HEK
T5 sequence (chain, as listed by the source limits assumed): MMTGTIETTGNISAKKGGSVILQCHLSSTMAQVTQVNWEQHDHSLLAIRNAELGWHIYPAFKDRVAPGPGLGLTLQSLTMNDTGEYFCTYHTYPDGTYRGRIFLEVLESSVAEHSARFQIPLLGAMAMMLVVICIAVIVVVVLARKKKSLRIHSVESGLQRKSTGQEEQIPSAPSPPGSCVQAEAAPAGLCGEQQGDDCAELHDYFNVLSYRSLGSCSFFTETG
Procedure: as §2

| FOB (Fold Over Background) | Binder |
| --- | --- |
| 238 fold | B1 |
| 252 fold | B2 |
| 272 fold | B3 |
| 291 fold | B4 |
| 286 fold | B5 |
| 224 fold | B6 |
| 157 fold | B7 |
| 186 fold | B8 |
| 241 fold | B9 |

Source: patent US20230050440A1 (Seagen, published 2023)
